According to US20240309389A1, “Chimeric FCeRI a-Chain Gene, Chimeric FCeRI a-Chain Protein, Cells, Analysis Kit and Analysis Method” (TEIKYO HEISEI UNIVERSITY, priority 2021, published 2024):

Target: Human-Rat chimeric FcεRI α-chain protein (chimeric FcεRI on the cell membrane of HuRa clones) (human (extracellular domain) and rat (transmembrane and intracellular domains); rat) (UniProt P13386)
Experiment: cell-based or functional assay

Human-Rat chimeric FcεRI α-chain protein (chimeric FcεRI on the cell membrane of HuRa clones) (human (extracellular domain) and rat (transmembrane and intracellular domains); rat), sequence (chain, as listed by the source mutant, form in doubt, chain 1 of 3): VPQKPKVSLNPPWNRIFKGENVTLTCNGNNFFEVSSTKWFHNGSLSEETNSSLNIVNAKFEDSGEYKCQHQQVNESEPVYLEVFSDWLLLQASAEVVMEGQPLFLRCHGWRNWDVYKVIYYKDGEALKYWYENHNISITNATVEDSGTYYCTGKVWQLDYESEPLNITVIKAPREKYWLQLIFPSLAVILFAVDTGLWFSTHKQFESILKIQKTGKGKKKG
Human-Rat chimeric FcεRI α-chain protein (chimeric FcεRI on the cell membrane of HuRa clones) (human (extracellular domain) and rat (transmembrane and intracellular domains); rat), sequence (P13386 whole entry, stated change not applied, form in doubt, chain 2 of 3, the tested form may be a part): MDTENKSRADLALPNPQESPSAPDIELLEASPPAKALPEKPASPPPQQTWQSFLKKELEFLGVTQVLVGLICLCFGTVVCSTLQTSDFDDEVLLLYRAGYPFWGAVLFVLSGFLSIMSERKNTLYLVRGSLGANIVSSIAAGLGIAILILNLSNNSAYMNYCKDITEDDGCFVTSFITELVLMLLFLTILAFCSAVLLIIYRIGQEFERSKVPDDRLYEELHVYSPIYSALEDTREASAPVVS
Human-Rat chimeric FcεRI α-chain protein (chimeric FcεRI on the cell membrane of HuRa clones) (human (extracellular domain) and rat (transmembrane and intracellular domains); rat), sequence (P20411 19-86, stated change not applied, form in doubt, chain 3 of 3): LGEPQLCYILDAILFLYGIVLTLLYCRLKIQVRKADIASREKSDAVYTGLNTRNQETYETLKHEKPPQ

“purified human IgE (ab65866, Abcam) (from UniProt P01854 1-428) (antibody)” showed a luciferase expression level (NF-AT reporter), IgE-sensitized (aIgE) against not sensitized (no IgE) cells, stimulated with anti-human IgE antibody; seven HuRa clones of 100 times.
